Data reported in US20090215120A1 (UNIVERSITY OF MEDICINE AND DENTISTRY OF NEW JERSEY, published 2009).

Key:
[1] = molecular target: T1, OmpR, transcription factor (response regulator) of E. coli, P0AA16
T1 chain: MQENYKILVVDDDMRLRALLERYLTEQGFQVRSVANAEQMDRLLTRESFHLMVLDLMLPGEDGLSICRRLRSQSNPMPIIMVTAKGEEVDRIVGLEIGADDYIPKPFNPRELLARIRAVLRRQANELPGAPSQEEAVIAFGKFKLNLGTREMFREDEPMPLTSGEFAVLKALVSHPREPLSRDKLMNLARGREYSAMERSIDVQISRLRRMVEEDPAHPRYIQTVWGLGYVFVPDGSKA

[2] = molecular target: PrS2-OmpR (OmpR fused to two tandem repeats of the N-terminal domain, residues 1-92, of protein S of Myxococcus xanthus), P02966
PrS2-OmpR (OmpR fused to two tandem repeats of the N-terminal domain, residues 1-92, of protein S of Myxococcus xanthus), P02966, sequence (P02966 whole entry, looked up, the tested form may be a part): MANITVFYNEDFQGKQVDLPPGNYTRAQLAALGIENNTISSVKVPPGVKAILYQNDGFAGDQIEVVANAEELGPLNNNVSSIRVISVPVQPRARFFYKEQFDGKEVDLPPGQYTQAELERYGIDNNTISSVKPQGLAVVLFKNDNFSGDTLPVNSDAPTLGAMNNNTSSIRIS

[3] = molecular target: T2, phosphorylated OmpR (OmpR-P), P0AA16
T2 chain: T1 chain

[4] = molecular target: phosphorylated PrS2-OmpR (PrS2-OmpR-P)
[5] = molecular target: T3, EnvZc, the cytoplasmic domain of EnvZ (histidine kinase of E. coli) (E. coli, UniProt P0AEJ4 180-450); experiment: 10% native PAGE, 4 uM of each protein, 5 min at room temperature
T3 construct: domain: cytoplasmic domain of EnvZ; Purified EnvZc
T3 sequence: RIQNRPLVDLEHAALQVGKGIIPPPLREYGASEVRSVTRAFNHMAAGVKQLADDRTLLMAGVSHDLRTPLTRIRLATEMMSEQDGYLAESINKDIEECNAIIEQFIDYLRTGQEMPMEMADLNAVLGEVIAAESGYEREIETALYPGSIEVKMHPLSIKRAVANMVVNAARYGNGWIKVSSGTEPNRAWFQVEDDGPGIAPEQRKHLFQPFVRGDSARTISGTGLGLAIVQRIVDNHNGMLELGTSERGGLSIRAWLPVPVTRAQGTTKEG

B1: phosphorylated EnvZc (EnvZc-P), 32P-labelled (protein)
chain: T3 sequence
**Q.** With B1 as the binder, how does the “phosphotransfer from 32P-labelled EnvZc-P to OmpR (SDS-PAGE, autoradiography)” value [1] read?
**A.** Its value is “the phosphoryl group on EnvZ was instantly transferred to OmpR and this reaction was completed in 120 sec”.

**Q.** What about the “phosphotransfer from 32P-labelled EnvZc-P to PrS2-OmpR (SDS-PAGE, autoradiography)” value [2] of the same binder?
**A.** The value was “EnvZc-P was able to phosphorylate PrS2-OmpR and the result was almost identical to the non-tagged OmpR”.

B2: EnvZc, the cytoplasmic domain of EnvZ (histidine kinase of E. coli) (protein)
chain: T3 sequence
**Q.** How did the “dephosphorylation of OmpR-P by EnvZc upon addition of ADP (SDS-PAGE, autoradiography)” value [3] turn out when B2 was run?
**A.** The value was “OmpR-P was quickly dephosphorylated and Pi was released”.

**Q.** What about the “dephosphorylation of PrS2-OmpR-P by EnvZc upon addition of ADP (SDS-PAGE, autoradiography)” value [4] of the same binder?
**A.** Its value is “Although in case of PrS2-OmpR, this reaction was slowed by PrS2 tag, phosphorylated PTS2-OmpR was dephosphorylated by EnvZc”.

B3: OmpR, transcription factor (response regulator) of E. coli (other)
chain: T1 chain
notes: Purified wild-type OmpR; also called wild-type OmpR; non-tagged OmpR
**Q.** Does B3 bind [5]?
**A.** Result: binds
